Laboratory results: patent US11634477 (dated 2023)
Changes are numbered by the printed parent chain.

Experiments:
SARS-CoV-2 RBD = SARS-CoV-2 RBD (SARS-CoV-2, UniProt P0DTC2); test: ELISA
SARS-CoV RBD = SARS-CoV RBD (SARS-CoV, UniProt P59594); test: ELISA

B1: C126 (antibody, V domains shown)
VH: QVQLQESGPGLVKPSETLSLSCAVSGGSIGSYFWSWIRQPPGKGLEWIGYLHYSGSTNYNPSLKSRVTISVDTSKNQFSLKLSSVTAADTAVYYCARLQWLRGAFDIWGQGTMVTVSS
VL: NFMLTQPHSVSESPGKTVTISCTGSSGSIASNYVQWYQQRPGSAPTTVINEDNQRPSGVPDRFSGSIDSSSNSASLTISGLKTEDEADYYCQSYDSSNLVFGGGTKLTVL
Binder B1 has an EC50 (SARS-CoV-2 RBD) of 4.78 ng/mL and an EC50 (SARS-CoV RBD) of over 1000 ng/mL.

B2: C144 (antibody, V domains shown)
VH: EVQLVESGGGLIQPGGSLRLSCAASGFTVSNNYMSWVRQAPGKGLEWVSVIYSGGSTYYADSVKGRFTISRDKSKNTLYLQMNRLRAEDTAVYYCAREGEVEGYNDFWSGYSRDRYYFDYWGQGTLVTVSS
VL: QSALTQPASVSGSPGQSITISCTGTSSDVGGYNYVSWYQQHPGKAPKLMIYDVSNRPSGVSNRFSGSKSGNTASLTISGLQAEDEADYYCSSYTSSSTRVFGTGTKVTVL
B2 gave an EC50 (SARS-CoV-2 RBD) of 3.24 ng/mL and an EC50 (SARS-CoV RBD) of over 1000 ng/mL.

B3: C112 (antibody, V domains shown)
VH: QVQLVESGGGVVQPGRSLRLSCAASGFTFSSHAMHWVRQAPGKGLEWVAVISYDGSNKYYADSVKGRFTISRDNSKNTLYLQMNSLRAEDTAVYYCAREDYYDSSGSFDYWGQGTLVTVSS
VL: B2 VL with R99W, T103G, V107L
Work on B3 yielded an EC50 (SARS-CoV-2 RBD) of 3.38 ng/mL and an EC50 (SARS-CoV RBD) of over 1000 ng/mL.

B4: C132 (antibody, V domains shown)
VH: QVQLQESGPGLVKPSGTLSLTCAVSGGSISSNNWWSCVRQPPGKGLEWIGEIYHSGSTNYNPSLKSRVTISVDKSKNQFSLKLSSVTAADTAVYYCARGGDTAMGPEYFDYWGQGTLVTVSS
VL: B2 VL with R99L, V100L, T103G, V107L
B4 gave an EC50 (SARS-CoV-2 RBD) of 2.92 ng/mL and an EC50 (SARS-CoV RBD) of over 1000 ng/mL.

B5: C010 (antibody, V domains shown)
VH: EVQLVESGGGVVQPGRSLRLSCAASGFTFSSYAMHWVRQAPAKGLEWVAVILYDGSGKYYADSVKGRFTISRDNSKNTLYLQMNSLRAEDTAVYYCARDGIVDTALVTWFDYWGQGTLVTVSS
VL: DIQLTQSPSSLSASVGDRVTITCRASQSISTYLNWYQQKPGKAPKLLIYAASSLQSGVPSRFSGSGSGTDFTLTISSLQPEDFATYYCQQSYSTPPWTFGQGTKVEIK
B5 gave an EC50 (SARS-CoV-2 RBD) of 5.44 ng/mL and an EC50 (SARS-CoV RBD) of over 1000 ng/mL.

B6: C153 (antibody, V domains shown)
VH: EVQLVESGGGLIQPGGSLRLSCAASGFTVSSNYMSWVRQAPGKGLEWVSVIYSGYSTYYVDSVKGRFTISRDNSKNTLYLQMNSLRAEDTAVYYCARVGGAHSGYDGSFDYWGQGTLVTVSS
VL: QSALTQPASVSGSPGQSITISCTGTSSDVGSYNLVSWYQQHPGKAPKLMIYEGSKRPSGVSNRFSGSKSGNTASLTISGLQAEDEADYYCCSYAGSSTWVFGGGTKLTVL
With B6 the EC50 (SARS-CoV-2 RBD) was 3.17 ng/mL and the EC50 (SARS-CoV RBD) was over 1000 ng/mL.

B7: C146 (antibody, V domains shown)
VH: EVQLVESGGGLVKPGGSLRLSCAASGLTFTAYRMNWVRQAPGKGLEWLSSISNTNGDIYYADSVKGRFTISRDNAKNSLYLQMNSLRADDTAVYYCARDVASNYAYFDLWGQGTLVTVSS
VL: QSALTQPASVSGSPGQSITISCTGTSSDIGVYNYISWSQQHPGKAPKVMIYDVTNRPSGVSNRFSGSKSGNTASLTISGLQAEDEADYYCSSYRGSSTPYVFGTGTKVTVL
B7 showed an EC50 (SARS-CoV-2 RBD) of over 1000 ng/mL and an EC50 (SARS-CoV RBD) of over 1000 ng/mL.

B8: C102 (antibody, V domains shown)
VH: QVQLVESGGGLIQPGGSLRLSCAASGFIVSSNYMSWVRQAPGKGLEWVSVIYSGGSTFYADSVKGRFTISRDNSKNTLYLQMNSLRAEDTAVYYCARDYGDYYFDYWGQGTLVTVSS
VL: not shown
Binder B8 has an EC50 (SARS-CoV-2 RBD) of 4.54 ng/mL and an EC50 (SARS-CoV RBD) of over 1000 ng/mL.

B9: C156 (antibody, V domains shown)
VH: QVQLVESGGGVVQPGRSLRLSCAASGFTFSNYGMHWVRQAPGKGLEWVAVISYDGNNKYYADSVKGRFTISRDNSKNTLYLQMNSLRAEDTAVYYCAKDPFPLAVAGTGYFDYWGQGTLVTVSS
VL: SYELTQPPSVSVAPGQTARISCGGNNIGSKNVHWYQQKPGQAPVLVVYDDSDRPSGIPERFSGSNSGNTATLTISRVEAGDEADYYCQVWDSSSDPWVFGGGTKLTVL
With B9 the EC50 (SARS-CoV-2 RBD) was 3.32 ng/mL and the EC50 (SARS-CoV RBD) was over 1000 ng/mL.
